Results from the supplement of paper PMC7877785.
± gives the uncertainty stated by the source.

Experiment: self-splicing fitness, log relative to wild type (ln ratio); higher = more splicing; Tetrahymena group I intron in knt gene, E. coli kanamycin selection, DiMSum; sequences stand for … in CUCUCU…GGAGGGAAAAGUUAUCAGGCAUGCACCUGGUAGCUAGUCUUUAAACCAAUAGAUUGCAUCGGUUUAAAAGGCAAGACCGUCAAAUUGCGGGAAAGGGGUCAACAGCCGUUCAGUACCAAGUCUCAGGGGAAACUUUGAGAUGGCCUUGCAAAGGGUAUGGUAAUAAGCUGACGGACAUGGUCCUAACCACGCAGCCAAGUCCUAAGUCAACAGAUCUUCUGUUGAUAUGGAUGCAGUUCACAGACUAAAUGUCGGUCGGGGAAGAUGUAUUCUUCUCAUAAGAUAUAGUCGGACCUCUCCUUAAUGGGAGCUAGCGGAUGAAGUGAUGCAACACUGGAGCCGCUGGGAACUAAUUUGUAUGCGAAAGUAUAUUGAUUAGUUUUGGAGUACUCGUGGUCG
Outline: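 Library with all eight P1ex-region intron nucleotides randomised, intron inside the knt kanamycin-resistance gene on pET-22b(+), in E. coli BL21(DE3). Cells grew overnight at 37°C or 30°C on LB agar with or without 25 μg/mL kanamycin (plus 100 μg/mL carbenicillin, 50 μM IPTG, 0.2% rhamnose), in six replicate transformations. Pooled colonies were amplicon-sequenced on Illumina HiSeq 2500. DiMSum fitness is the error-weighted combination of wild-type-normalised replicate fold changes, kanamycin versus none.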

Row | Sequence | self-splicing fitness (ln) (30 °C) | self-splicing fitness (ln) (37 °C)
1 | AACUAGCAAUAUUACGCUGA | -2.18 ± 0.14 | -1.91 ± 0.13
2 | CCACAGCAAUAUUACGCGAU | -3.36 ± 0.17 | -3.66 ± 0.21
3 | CGCGAGCAAUAUUACGUUUU | -4.56 ± 0.46 | -2.17 ± 0.2
4 | UCUAAGCAAUAUUACGAGCG | -1.19 ± 0.1 | -0.708 ± 0.12
5 | AUCUAGCAAUAUUACGUAAU | -1.28 ± 0.098 | -1.37 ± 0.12
6 | GAGGAGCAAUAUUACGCCAA | – | -1.6 ± 0.48
7 | CACUAGCAAUAUUACGGAUC | -1.79 ± 0.19 | –
8 | GUCUAGCAAUAUUACGUGGC | -2.84 ± 0.44 | -3.01 ± 0.43
9 | CUCCAGCAAUAUUACGGUUG | -2.69 ± 0.097 | -1.01 ± 0.12
10 | CAUCAGCAAUAUUACGCUUG | -2.08 ± 0.084 | -1.03 ± 0.098
11 | CCGAAGCAAUAUUACGAUGC | -4.36 ± 0.26 | -2.34 ± 0.23
12 | GCAGAGCAAUAUUACGCCGC | -2.91 ± 0.38 | –
13 | UCGUAGCAAUAUUACGGACU | -3.21 ± 0.31 | -0.974 ± 0.21
14 | AGGUAGCAAUAUUACGCACC | -2.33 ± 0.031 | -1.26 ± 0.042
15 | ACGGAGCAAUAUUACGGUGU | -3.78 ± 0.2 | -2.35 ± 0.16
16 | CGGAAGCAAUAUUACGGAGC | -2.75 ± 0.26 | -1.88 ± 0.36
17 | AAAAAGCAAUAUUACGAGCU | -0.615 ± 0.092 | -0.172 ± 0.13
18 | GCCGAGCAAUAUUACGGAGA | -1.55 ± 0.093 | -1.15 ± 0.13
19 | CUAGAGCAAUAUUACGAAUG | 0.298 ± 0.095 | 0.533 ± 0.11
20 | UAUUAGCAAUAUUACGGAUG | -0.629 ± 0.09 | -0.294 ± 0.12
21 | UAAUAGCAAUAUUACGAGGA | -3.68 ± 0.25 | -2.62 ± 0.16
22 | AGGGAGCAAUAUUACGGAGA | -2.65 ± 0.4 | -2.69 ± 0.32

Row | Sequence | self-splicing fitness (ln) (30 °C) | self-splicing fitness (ln) (37 °C)
23 | AUACAGCAAUAUUACGAGCG | -1.63 ± 0.096 | -0.55 ± 0.1
24 | CGAAAGCAAUAUUACGUAGA | -2.43 ± 0.092 | -1.49 ± 0.12
25 | UCAAAGCAAUAUUACGGGUC | -3.59 ± 0.23 | -3.14 ± 0.25
26 | ACGAAGCAAUAUUACGAUUU | -1.28 ± 0.094 | -0.317 ± 0.1
27 | CGGUAGCAAUAUUACGGGAA | -3.45 ± 0.41 | -2.75 ± 0.29
28 | AGGGAGCAAUAUUACGUGUG | -2.78 ± 0.17 | -3.07 ± 0.26
29 | GAAUAGCAAUAUUACGUUUC | -3.37 ± 0.19 | -2.4 ± 0.29
30 | AAAAAGCAAUAUUACGCAAU | -0.871 ± 0.076 | -1.08 ± 0.13
31 | AGCAAGCAAUAUUACGAAAG | -2.4 ± 0.23 | -1.36 ± 0.22
32 | CAGUAGCAAUAUUACGGAUC | -3.64 ± 0.43 | -1.48 ± 0.27
33 | CACGAGCAAUAUUACGUGCA | -3.55 ± 0.18 | -3.24 ± 0.23
34 | GAGCAGCAAUAUUACGGCUA | -0.634 ± 0.1 | -0.0591 ± 0.15
35 | UCGAAGCAAUAUUACGGAUU | -3.96 ± 0.32 | -2.56 ± 0.25
36 | GAAAAGCAAUAUUACGGCGG | -1.86 ± 0.1 | -1.59 ± 0.1
37 | GUUCAGCAAUAUUACGGCGU | -0.298 ± 0.085 | 0.138 ± 0.11
38 | GCCUAGCAAUAUUACGUGAG | -1.21 ± 0.085 | -0.757 ± 0.091
39 | CACGAGCAAUAUUACGGACU | -3.12 ± 0.22 | -1.44 ± 0.25
40 | CUGAAGCAAUAUUACGAAGG | -0.457 ± 0.093 | -1.38 ± 0.14
41 | CUAAAGCAAUAUUACGGCCG | 0.821 ± 0.14 | 0.575 ± 0.21
42 | AUACAGCAAUAUUACGACCU | 0.331 ± 0.084 | 0.122 ± 0.094
43 | UGGUAGCAAUAUUACGGUUC | -3.54 ± 0.46 | -3.1 ± 0.47
